From the supplement of paper PMC10567573

B1: ATL3 (parent)
chain: YGLQGGMAFLDKRLQVKEHQHEEI

Variants of: B1
Assay: protein stability index of a GFP-peptide fusion (GPS, HEK-293T) (PSI 1-6); higher = more stable
Conditions: c terminus: a fixed tail appended
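Further: lentivirally expressed fusions sorted by FACS into six bins by GFP to DsRed ratio, PSI derived from sequencing read proportions per bin multiplied by bin number.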

Variant	protein stability index
SGLQGGMAFLDKRLQVKEHQHEEI	4.46
NGLQGGMAFLDKRLQVKEHQHEEI	4.53
VGLQGGMAFLDKRLQVKEHQHEEI	3.92
WGLQGGMAFLDKRLQVKEHQHEEI	2.45
TGLQGGMAFLDKRLQVKEHQHEEI	4.08
QGLQGGMAFLDKRLQVKEHQHEEI	4.79
PGLQGGMAFLDKRLQVKEHQHEEI	4.22
RGLQGGMAFLDKRLQVKEHQHEEI	4.07
YELQGGMAFLDKRLQVKEHQHEEI	3.28
YHLQGGMAFLDKRLQVKEHQHEEI	2.3
YQLQGGMAFLDKRLQVKEHQHEEI	2.11
YCLQGGMAFLDKRLQVKEHQHEEI	1.82
YWLQGGMAFLDKRLQVKEHQHEEI	2.37
YMLQGGMAFLDKRLQVKEHQHEEI	2.39
YPLQGGMAFLDKRLQVKEHQHEEI	2.63
YRLQGGMAFLDKRLQVKEHQHEEI	3.49
YDLQGGMAFLDKRLQVKEHQHEEI	3.52
YFLQGGMAFLDKRLQVKEHQHEEI	2.31
YNLQGGMAFLDKRLQVKEHQHEEI	2.26
YLLQGGMAFLDKRLQVKEHQHEEI	1.93
YALQGGMAFLDKRLQVKEHQHEEI	2.28
YYLQGGMAFLDKRLQVKEHQHEEI	2.71
YSLQGGMAFLDKRLQVKEHQHEEI	2.96
YKLQGGMAFLDKRLQVKEHQHEEI	3.22

Variant	protein stability index
YTLQGGMAFLDKRLQVKEHQHEEI	2.05
YILQGGMAFLDKRLQVKEHQHEEI	1.66
YGLQFGMAFLDKRLQVKEHQHEEI	1.82
YGLQNGMAFLDKRLQVKEHQHEEI	2.44
YGLQHGMAFLDKRLQVKEHQHEEI	2.5
YGLQIGMAFLDKRLQVKEHQHEEI	2.04
YGLQVGMAFLDKRLQVKEHQHEEI	2.28
YGLQTGMAFLDKRLQVKEHQHEEI	3.18
YGLQSGMAFLDKRLQVKEHQHEEI	2.25
YGLQPGMAFLDKRLQVKEHQHEEI	2.65
YGLQQGMAFLDKRLQVKEHQHEEI	2.73
YGLQMGMAFLDKRLQVKEHQHEEI	2.1
YGLQAGMAFLDKRLQVKEHQHEEI	1.74
YGLQRGMAFLDKRLQVKEHQHEEI	2.39
YGLQLGMAFLDKRLQVKEHQHEEI	2.39
YGLQKGMAFLDKRLQVKEHQHEEI	2.4
YGLQDGMAFLDKRLQVKEHQHEEI	2.34
YGLQCGMAFLDKRLQVKEHQHEEI	1.92
YGLQEGMAFLDKRLQVKEHQHEEI	3.15
YGLQYGMAFLDKRLQVKEHQHEEI	2.66
YGLQGTMAFLDKRLQVKEHQHEEI	1.73
YGLQGYMAFLDKRLQVKEHQHEEI	2.34
YGLQGSMAFLDKRLQVKEHQHEEI	2.13
YGLQGAMAFLDKRLQVKEHQHEEI	3.1

Variant	protein stability index
YGLQGVMAFLDKRLQVKEHQHEEI	2.03
YGLQGNMAFLDKRLQVKEHQHEEI	2.32
YGLQGPMAFLDKRLQVKEHQHEEI	2.65
YGLQGCMAFLDKRLQVKEHQHEEI	2.21
YGLQGQMAFLDKRLQVKEHQHEEI	2.95
YGLQGLMAFLDKRLQVKEHQHEEI	3.04
YGLQGEMAFLDKRLQVKEHQHEEI	2.41
YGLQGIMAFLDKRLQVKEHQHEEI	2.54
YGLQGKMAFLDKRLQVKEHQHEEI	2.46
YGLQGHMAFLDKRLQVKEHQHEEI	1.63
YGLQGDMAFLDKRLQVKEHQHEEI	2.31
YGLQGWMAFLDKRLQVKEHQHEEI	1.97
YGLQGMMAFLDKRLQVKEHQHEEI	2.26
YGLQGRMAFLDKRLQVKEHQHEEI	2.85
YGLTGGMAFLDKRLQVKEHQHEEI	1.89
YGLDGGMAFLDKRLQVKEHQHEEI	2.18
YGLEGGMAFLDKRLQVKEHQHEEI	1.92
YGLFGGMAFLDKRLQVKEHQHEEI	2.32
YGLMGGMAFLDKRLQVKEHQHEEI	2.83
YGLIGGMAFLDKRLQVKEHQHEEI	2.86
YGLLGGMAFLDKRLQVKEHQHEEI	1.75
YGLSGGMAFLDKRLQVKEHQHEEI	2.16
YGLNGGMAFLDKRLQVKEHQHEEI	3.07
YGLWGGMAFLDKRLQVKEHQHEEI	2.66

Variant	protein stability index
YGLRGGMAFLDKRLQVKEHQHEEI	2.67
YGLCGGMAFLDKRLQVKEHQHEEI	3.19
YGLVGGMAFLDKRLQVKEHQHEEI	2.25
YGLAGGMAFLDKRLQVKEHQHEEI	3.19
YGLPGGMAFLDKRLQVKEHQHEEI	2.37
YGLKGGMAFLDKRLQVKEHQHEEI	3.89
YGLGGGMAFLDKRLQVKEHQHEEI	1.98
YGLHGGMAFLDKRLQVKEHQHEEI	3.46
YGLQGGKAFLDKRLQVKEHQHEEI	3.76
YGLQGGFAFLDKRLQVKEHQHEEI	3.3
YGLQGGAAFLDKRLQVKEHQHEEI	1.38
YGLQGGRAFLDKRLQVKEHQHEEI	2.24
YGLQGGSAFLDKRLQVKEHQHEEI	2.05
YGLQGGIAFLDKRLQVKEHQHEEI	2.28
YGLQGGWAFLDKRLQVKEHQHEEI	1.47
YGLQGGGAFLDKRLQVKEHQHEEI	2.02
YGLQGGYAFLDKRLQVKEHQHEEI	1.93
YGLQGGVAFLDKRLQVKEHQHEEI	2.52
YGLQGGLAFLDKRLQVKEHQHEEI	2.66
YGLQGGCAFLDKRLQVKEHQHEEI	2.48
YGLQGGDAFLDKRLQVKEHQHEEI	2.16
YGLQGGTAFLDKRLQVKEHQHEEI	1.7
